Legend:
[1] = molecular target: T1, B. anthracis Surface array protein (Sap), native S-Layer on B. anthracis 34F2 cells (Bacillus anthracis, UniProt P49051 30-814); test: fluorescence microscopy of B. anthracis 34F2 cells with DyLight 650-labelled Nb
T1 sequence: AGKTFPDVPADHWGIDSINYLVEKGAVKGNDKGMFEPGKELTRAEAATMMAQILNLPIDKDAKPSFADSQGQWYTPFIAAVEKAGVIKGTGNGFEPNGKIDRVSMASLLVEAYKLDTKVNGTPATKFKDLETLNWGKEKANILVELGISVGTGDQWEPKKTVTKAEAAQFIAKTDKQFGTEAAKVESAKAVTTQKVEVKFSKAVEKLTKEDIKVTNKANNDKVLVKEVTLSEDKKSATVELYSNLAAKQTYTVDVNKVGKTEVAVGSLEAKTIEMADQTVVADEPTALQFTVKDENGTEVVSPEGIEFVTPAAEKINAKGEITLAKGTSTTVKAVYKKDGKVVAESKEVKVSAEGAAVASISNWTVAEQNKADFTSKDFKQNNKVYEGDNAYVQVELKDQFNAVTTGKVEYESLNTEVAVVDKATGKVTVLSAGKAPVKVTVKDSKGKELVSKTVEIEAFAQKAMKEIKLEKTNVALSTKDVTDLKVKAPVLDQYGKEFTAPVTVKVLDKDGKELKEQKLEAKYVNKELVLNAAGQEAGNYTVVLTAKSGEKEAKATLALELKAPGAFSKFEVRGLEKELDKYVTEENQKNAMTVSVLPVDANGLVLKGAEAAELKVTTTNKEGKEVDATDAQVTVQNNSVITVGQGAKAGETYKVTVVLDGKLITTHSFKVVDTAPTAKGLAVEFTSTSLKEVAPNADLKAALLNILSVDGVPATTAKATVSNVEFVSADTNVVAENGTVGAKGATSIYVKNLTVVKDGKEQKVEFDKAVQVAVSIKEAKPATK

[2] = molecular target: Sap Domain 2 (D2, residues 296-384), isolated recombinant domain (Bacillus anthracis, UniProt P49051 296-384); test: dot blot
[3] = molecular target: Sap Domain 1 (D1, residues 216-295), isolated recombinant domain (Bacillus anthracis, UniProt P49051 216-295); test: dot blot

B1: anti-Sap Nanobody703 (VHH)
VHH: QVQLVESGGGLVQPGGSLRLSCAASGFTFSSYAMSWVRQAPGKGLEWVSDINSGGGSTYYADSVKGRFTISRDNAKNTLYLQMNSLKPEDTAVYYCATGGKYGSTWYGQIEYDYWGQGTQVTVSS
B1: binds [1].

B2: anti-Sap Nanobody688 (VHH)
VHH: QVQLVESGGGLVRAGGSLRLSCAASGSIFRINDMGWYRQAPGKQRELVAAITSGGSTNYADSVKGRFTISRDNAKNTVYLQMNSLKPEDTAVYYCNADFSTVRERRYDYWGQGTQVTVSS
B2: no binding [2].

B3: anti-Sap Nanobody707 (VHH)
VHH: QVQLVESGGGLVQAGGSLRLSCAASGSIFRINAMGWYRQASGKQRELVAAITSGGNTNYADSVKGRFTISRDNAKNTVYLQMNSLKPEDTAVYYCNADFGTGGRPYDYWGQGTQVTVSS
B3: no binding [2].

B4: anti-Sap Nanobody702 (VHH)
VHH: QVQLVESGGGLVQAGGSLRLSCAASGSIFRVNDMGWYRQAPGKQRELVAIIITGGSTNYADSVKGRFTISRDNAKNTVYLQMNSLRPEDTAVYYCNADFGTGPGRYDYWGQGTQVTVSS
B4: no binding [2].

B5: anti-Sap Nanobody683 (VHH)
VHH: QVQLVESGGGLVQAGGSLRLSCAASGSIFRINDMGWYRQAPGKQRELVAAITSGGSTNYADSVKGRFTISRDNAKKMVYLQMNSLKPEDTAVYYCHADFSTGWAPYDYWGQGTQVTVSS
B5: no binding [2].

B6: anti-Sap Nanobody684 (VHH)
VHH: QVQLVESGGGLVQAGGSLRLFCAASGSIFRVNAMGWYRQVTGKQRELVAAITSGGRTNYADSVKGRFTISRDNIKNTVYLQMNSLKPEDTAVYYCNADLGTGGRSYDYWGQGTQVTVSS
B6: binds [3].

B7: anti-Sap Nanobody692 (VHH)
VHH: QVQLVESGGGLVQAGGSLRLSCAASGSIFRINDMGWYRQAPGKQRELVAVITSGGSANYADSVKGRFSISRDNAKKAVYLRMNSLKPEDTAVYYCNADFGTLGRYDYWGQGTQVTVSS
B7: no binding [2].
